In data set [1] the target is ZFL1-ND1-DDD (Artificial). The experiment in a line: cell_activity; SSA, ZFL1-6bp-ZFA36, paired with ND1-RRR; about 80% with FokI-RRR; alone almost inactive. The conditions noted are these: R493D/N502D. The procedure: (§1) Genes to Cells 15: 875-885). To a 96-well multiwell plate (Iwaki) treated with polylysine coat, 25 μL of serum-free D-MEM culture solution was added, and 6 μL of plasmid solution was mixed. To this, 25.7 μL of a solution containing 0.7 μL of Lipofectamine LTX (Life Technologies) per 25 μL of serum-free D-MEM culture solution was added, and the mixture was allowed to stand at room temperature for 30 minutes. During this period, HEK293T cells were dissociated from a 100 mm tissue culture dish (Iwaki) by trypsin treatment, centrifuged at 1000 rpm for 3 minutes, the supernatant was removed, and the cells were suspended again in 5 mL of the culture solution. A 10 μL cell suspension was dispensed, and the number of cells was counted. […]
(§2) Furthermore, in order to functionally convert the amino acids of the novel nuclease domains corresponding to the amino acids (D483, R487, and N496) involved in the heterodimerization of FokI-ND to the DDD-type, each pSTL-hPGRN_ZFL1-ND was used as a template and a primer pair was used to perform PCR by PrimeSTAR Max. […] Note that the amount of each ZFN plasmid in 7.2 μL of the plasmid solution used in the SSA reporter assay was changed to 120 ng for the target half-site L and 120 ng for the target half-site R. In addition, nuclease activity was measured by the Cel-I assay in the same manner as described in Example 3.

Data set [2] addresses ZFA36-ND1 (Artificial (ND1 from Bacillus sp. …)). The experiment in a line: cell_activity; Cel-I assay CHO-K1, stated for the sites overall. The conditions noted are these: tags: TGAAARA linker; residues from the E. coli expression version (His/NLS); chain copies: 2 inferred.
The target in data set [3] is ZFA36-ND1-RRR (Artificial). The experiment in a line: cell_activity; SSA, ZFL1-6bp-ZFA36, paired with ND1-DDD; about 60% with FokI-DDD; alone almost inactive. To be noted: D489R/N543R. As for the experimental part:
as §1, §2

Chain of ZFA36-ND1-RRR (Artificial) (chain, as listed by the source): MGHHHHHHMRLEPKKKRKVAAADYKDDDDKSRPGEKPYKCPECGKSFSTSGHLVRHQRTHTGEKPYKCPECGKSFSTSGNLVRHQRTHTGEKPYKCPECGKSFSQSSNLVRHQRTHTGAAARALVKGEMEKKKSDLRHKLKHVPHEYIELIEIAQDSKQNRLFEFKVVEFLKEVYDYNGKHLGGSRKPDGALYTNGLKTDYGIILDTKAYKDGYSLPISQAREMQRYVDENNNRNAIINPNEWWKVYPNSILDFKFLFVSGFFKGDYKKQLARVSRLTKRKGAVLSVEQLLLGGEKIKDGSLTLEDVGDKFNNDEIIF
Chain of ZFL1-ND1-DDD (Artificial) (chain, as listed by the source): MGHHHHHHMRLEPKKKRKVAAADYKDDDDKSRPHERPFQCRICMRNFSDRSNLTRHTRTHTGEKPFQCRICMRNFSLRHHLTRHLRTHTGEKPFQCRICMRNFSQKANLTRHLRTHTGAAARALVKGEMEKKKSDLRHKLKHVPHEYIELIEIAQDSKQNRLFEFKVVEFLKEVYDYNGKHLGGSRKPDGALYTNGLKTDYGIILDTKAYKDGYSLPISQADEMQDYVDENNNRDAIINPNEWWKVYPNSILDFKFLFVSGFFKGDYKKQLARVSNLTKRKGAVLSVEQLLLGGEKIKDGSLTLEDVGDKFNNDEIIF

B1: ZFL1 half-site (dsDNA)
DNA 1: GAAGGTGAC
DNA 2: GTCACCTTC
Take B1: the binding signal in data set [1] is ~1.6 fold.

B2: ZFA36-ZFA36 CHO-K1 3rd site (dsDNA)
DNA 1: ACCATCTTCCTTGATGAAGATGCC
DNA 2: GGCATCTTCATCAAGGAAGATGGT
On to B2, for which, in data set [2], the binding signal is ~1.5 fold of FokI-ND.

B3: ZFA36 half-site (dsDNA)
DNA 1: GAAGATGGT
DNA 2: ACCATCTTC
On to B3, for which the binding signal in data set [3] was ~1.6 fold.

The values above are taken from patent US20210332339, “NOVEL NUCLEASE DOMAIN AND USE THEREOF” (HIROSHIMA UNIVERSITY, published 2021).
